From patent US20230250154A1 (CYTONICS, published 2023) come the findings set out here.

Test in all cases: cell-based or functional assay
The target in one assay is T1, ADAMTS5 (human, UniProt Q9UNA0 262-622, limits assumed).
T1 sequence (looked up): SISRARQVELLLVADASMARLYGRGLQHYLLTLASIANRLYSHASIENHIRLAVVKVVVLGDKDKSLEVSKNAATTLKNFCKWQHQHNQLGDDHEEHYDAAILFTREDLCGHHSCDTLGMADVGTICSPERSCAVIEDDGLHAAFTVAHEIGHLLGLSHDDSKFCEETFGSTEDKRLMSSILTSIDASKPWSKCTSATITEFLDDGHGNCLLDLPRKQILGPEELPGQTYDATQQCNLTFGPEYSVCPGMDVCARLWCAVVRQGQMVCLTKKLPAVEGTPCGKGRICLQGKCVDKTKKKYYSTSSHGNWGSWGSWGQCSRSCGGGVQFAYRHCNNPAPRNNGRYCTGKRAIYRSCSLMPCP

The target in a further assay is T2, ADAMTS4 (human, UniProt O75173 213-685, limits assumed).
T2 sequence (looked up): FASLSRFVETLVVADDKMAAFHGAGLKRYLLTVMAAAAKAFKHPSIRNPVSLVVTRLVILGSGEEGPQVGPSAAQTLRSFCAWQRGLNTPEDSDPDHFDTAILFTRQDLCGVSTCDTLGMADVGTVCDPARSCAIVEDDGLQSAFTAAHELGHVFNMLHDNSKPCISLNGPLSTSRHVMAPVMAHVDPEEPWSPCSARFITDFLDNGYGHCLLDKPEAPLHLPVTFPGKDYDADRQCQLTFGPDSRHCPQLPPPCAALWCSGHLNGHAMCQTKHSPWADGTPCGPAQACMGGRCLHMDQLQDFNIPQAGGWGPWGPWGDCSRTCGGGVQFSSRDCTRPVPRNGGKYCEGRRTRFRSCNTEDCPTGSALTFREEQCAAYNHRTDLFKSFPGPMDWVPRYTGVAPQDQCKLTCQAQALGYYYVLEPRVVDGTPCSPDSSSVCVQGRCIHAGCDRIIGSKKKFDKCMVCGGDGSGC

The target in a further assay is MMP13 (human, UniProt P45452 104-471, limits assumed).

B1: Variant A2M, bait region SEQ ID NO 107 (other)
chain: SVSGKPQYMVLVPSLLHTETTEKGCVLLSYLNETVTVSASLESVRGNRSLFTDLEAENDVLHCVAFAVPKSSSNEEVMFLTVQVKGPTQEFKKRTTVMVKNEDSLVFVQTDKSIYKPGQTVKFRVVSMDENFHPLNELIPLVYIQDPKGNRIAQWQSFQLEGGLKQFSFPLSSEPFQGSYKVVVQKKSGGRTEHPFTVEEFVLPKFEVQVTVPKIITILEEEMNVSVCGLYTYGKPVPGHVTVSICRKYSDASDCHGEDSQAFCEKFSGQLNSHGCFYQQVKTKVFQLKRKEYEMKLHTEAQIQEEGTVVELTGRQSSEITRTITKLSFVKVDSHFRQGIPFFGQVRLVDGKGVPIPNKVIFIRGNEANYYSNATTDEHGLVQFSINTTNVMGTSLTVRVNYKDRSPCYGYQWVSEEHEEAHHTAYLVFSPSKSFVHLEPMSHELPCGHTQTVQAHYILNGGTLLGLKKLSFYYLIMAKGGIVRTGTHGLLVKQEDMKGHFSISIPVKSDIAPVARLLIYAVLPTGDVIGDSAKYDVENCLANKVDLSFSPSQSLPASHAHLRVTAAPQSVCALRAVDQSVLLMKPDAELSASSVYNLLPEKDLTGFPGPLNDQDDEDCINRHNVYINGITYTPVSSTNEKDMYSFLEDMGLKAFTNSKIRKPKMCPQLEQYEMHGPEGLRVGIPENFFGVTSEDLVVQEAIPMSIPKLRKYFPETWIWDLVVVNSAGVAEVGVTVPDTITEWKAGAFCLSEDAGLGISSTASLRAFQPFFVELTMPYSVIRGEAFTLKATVLNYLPKCIRVSVQLEASPAFLAVPVEKEQAPHCICANGRQTVSWAVTPKSLGNVNFTVSAEALESQELCGTEVPSVPEHGRKDTVIKPLLVEPEGLEKETTFNSLLCPSGGEVSEELSLKLPPNVVEESARASVSVLGDILGSAMQNTQNLLQMPYGCGEQNMVLFAPNIYVLDYLNETQQLTPEIKSKAIGYLNTGYQRQLNYKHYDGSYSTFGERYGRNQGNTWLTAFVLKTFAQARAYIFIDEAHITQALIWLSQRQKDNGCFRSSGSLLNNAIKGGVEDEVTLSAYITIALLEIPLTVTHPVVRNALFCLESAWKTAQEGDHGSHVYTKALLAYAFALAGNQDKRKEVLKSLNEEAVKKDNSVHWERPQKPKAPVGHFYEPQAPSAEVEMTSYVLLAYLTAQPAPTSEDLTSATNIVKWITKQQNAQGGFSSTQDTVVALHALSKYGAATFTRTGKAAQVTIQSSGTFSSKFQVDNNNRLLLQQVSLPELPGEYSMKVTGEGCVYLQTSLKYNILPEKEEFPFALGVQTLPQTCDEPKAHTSFQISLSVSYTGSRSASNMAIVDVKMVSGFIPLKPTVKMLERSNHVSRTEVSSNHVLIYLDKVSNQTLSLFFTVLQDVPVRDLKPAIVKVYDYYETDEFAIAEYNAPCSKDLGNADYKDDDDKGASHHHHHH
As for B1, the results for the “Protease Inhibition (% of WT)” value with ADAMTS5, in the assay with ADAMTS4 and with MMP13 were 108 % of WT, 92 % of WT and 136 % of WT, respectively.

B2: Variant A2M, bait region SEQ ID NO 109 (other)
chain: SVSGKPQYMVLVPSLLHTETTEKGCVLLSYLNETVTVSASLESVRGNRSLFTDLEAENDVLHCVAFAVPKSSSNEEVMFLTVQVKGPTQEFKKRTTVMVKNEDSLVFVQTDKSIYKPGQTVKFRVVSMDENFHPLNELIPLVYIQDPKGNRIAQWQSFQLEGGLKQFSFPLSSEPFQGSYKVVVQKKSGGRTEHPFTVEEFVLPKFEVQVTVPKIITILEEEMNVSVCGLYTYGKPVPGHVTVSICRKYSDASDCHGEDSQAFCEKFSGQLNSHGCFYQQVKTKVFQLKRKEYEMKLHTEAQIQEEGTVVELTGRQSSEITRTITKLSFVKVDSHFRQGIPFFGQVRLVDGKGVPIPNKVIFIRGNEANYYSNATTDEHGLVQFSINTTNVMGTSLTVRVNYKDRSPCYGYQWVSEEHEEAHHTAYLVFSPSKSFVHLEPMSHELPCGHTQTVQAHYILNGGTLLGLKKLSFYYLIMAKGGIVRTGTHGLLVKQEDMKGHFSISIPVKSDIAPVARLLIYAVLPTGDVIGDSAKYDVENCLANKVDLSFSPSQSLPASHAHLRVTAAPQSVCALRAVDQSVLLMKPDAELSASSVYNLLPEKDLTGFPGPLNDQDDEDCINRHNVYINGITYTPVSSTNEKDMYSFLEDMGLKAFTNSKIRKPKMCPQLEPAGAARGESESEGGFFGFPIGERESTGGDRGLPIGENEAGGKLRKYFPETWIWDLVVVNSAGVAEVGVTVPDTITEWKAGAFCLSEDAGLGISSTASLRAFQPFFVELTMPYSVIRGEAFTLKATVLNYLPKCIRVSVQLEASPAFLAVPVEKEQAPHCICANGRQTVSWAVTPKSLGNVNFTVSAEALESQELCGTEVPSVPEHGRKDTVIKPLLVEPEGLEKETTFNSLLCPSGGEVSEELSLKLPPNVVEESARASVSVLGDILGSAMQNTQNLLQMPYGCGEQNMVLFAPNIYVLDYLNETQQLTPEIKSKAIGYLNTGYQRQLNYKHYDGSYSTFGERYGRNQGNTWLTAFVLKTFAQARAYIFIDEAHITQALIWLSQRQKDNGCFRSSGSLLNNAIKGGVEDEVTLSAYITIALLEIPLTVTHPVVRNALFCLESAWKTAQEGDHGSHVYTKALLAYAFALAGNQDKRKEVLKSLNEEAVKKDNSVHWERPQKPKAPVGHFYEPQAPSAEVEMTSYVLLAYLTAQPAPTSEDLTSATNIVKWITKQQNAQGGFSSTQDTVVALHALSKYGAATFTRTGKAAQVTIQSSGTFSSKFQVDNNNRLLLQQVSLPELPGEYSMKVTGEGCVYLQTSLKYNILPEKEEFPFALGVQTLPQTCDEPKAHTSFQISLSVSYTGSRSASNMAIVDVKMVSGFIPLKPTVKMLERSNHVSRTEVSSNHVLIYLDKVSNQTLSLFFTVLQDVPVRDLKPAIVKVYDYYETDEFAIAEYNAPCSKDLGNADYKDDDDKGASHHHHHH
Take B2: the entries for the “Protease Inhibition (% of WT)” value with ADAMTS5, with ADAMTS4 and with MMP13 were 105 % of WT, 112 % of WT and 122 % of WT, respectively.

B3: Variant A2M, bait region SEQ ID NO 110 (other)
chain: SVSGKPQYMVLVPSLLHTETTEKGCVLLSYLNETVTVSASLESVRGNRSLFTDLEAENDVLHCVAFAVPKSSSNEEVMFLTVQVKGPTQEFKKRTTVMVKNEDSLVFVQTDKSIYKPGQTVKFRVVSMDENFHPLNELIPLVYIQDPKGNRIAQWQSFQLEGGLKQFSFPLSSEPFQGSYKVVVQKKSGGRTEHPFTVEEFVLPKFEVQVTVPKIITILEEEMNVSVCGLYTYGKPVPGHVTVSICRKYSDASDCHGEDSQAFCEKFSGQLNSHGCFYQQVKTKVFQLKRKEYEMKLHTEAQIQEEGTVVELTGRQSSEITRTITKLSFVKVDSHFRQGIPFFGQVRLVDGKGVPIPNKVIFIRGNEANYYSNATTDEHGLVQFSINTTNVMGTSLTVRVNYKDRSPCYGYQWVSEEHEEAHHTAYLVFSPSKSFVHLEPMSHELPCGHTQTVQAHYILNGGTLLGLKKLSFYYLIMAKGGIVRTGTHGLLVKQEDMKGHFSISIPVKSDIAPVARLLIYAVLPTGDVIGDSAKYDVENCLANKVDLSFSPSQSLPASHAHLRVTAAPQSVCALRAVDQSVLLMKPDAELSASSVYNLLPEKDLTGFPGPLNDQDDEDCINRHNVYINGITYTPVSSTNEKDMYSFLEDMGLKAFTNSKIRKPKMCPQLETEGRGEREAQGEFPEVEGEEEGGGPEKETGGEREAQGKLRKYFPETWIWDLVVVNSAGVAEVGVTVPDTITEWKAGAFCLSEDAGLGISSTASLRAFQPFFVELTMPYSVIRGEAFTLKATVLNYLPKCIRVSVQLEASPAFLAVPVEKEQAPHCICANGRQTVSWAVTPKSLGNVNFTVSAEALESQELCGTEVPSVPEHGRKDTVIKPLLVEPEGLEKETTFNSLLCPSGGEVSEELSLKLPPNVVEESARASVSVLGDILGSAMQNTQNLLQMPYGCGEQNMVLFAPNIYVLDYLNETQQLTPEIKSKAIGYLNTGYQRQLNYKHYDGSYSTFGERYGRNQGNTWLTAFVLKTFAQARAYIFIDEAHITQALIWLSQRQKDNGCFRSSGSLLNNAIKGGVEDEVTLSAYITIALLEIPLTVTHPVVRNALFCLESAWKTAQEGDHGSHVYTKALLAYAFALAGNQDKRKEVLKSLNEEAVKKDNSVHWERPQKPKAPVGHFYEPQAPSAEVEMTSYVLLAYLTAQPAPTSEDLTSATNIVKWITKQQNAQGGFSSTQDTVVALHALSKYGAATFTRTGKAAQVTIQSSGTFSSKFQVDNNNRLLLQQVSLPELPGEYSMKVTGEGCVYLQTSLKYNILPEKEEFPFALGVQTLPQTCDEPKAHTSFQISLSVSYTGSRSASNMAIVDVKMVSGFIPLKPTVKMLERSNHVSRTEVSSNHVLIYLDKVSNQTLSLFFTVLQDVPVRDLKPAIVKVYDYYETDEFAIAEYNAPCSKDLGNADYKDDDDKGASHHHHHH
Regarding B3, the “Protease Inhibition (% of WT)” value with ADAMTS5 is 208 % of WT; in the assay with ADAMTS4 it was 101 % of WT; with MMP13 it was 51 % of WT.
